“Also recorded” adds a separate entry of the source. Read-outs that look alike come from different tables or passages of the source.
Legend:
Type in all cases: cell-based, human
[1] = tested on: hESC-derived cardiomyocytes; assay: Effect of nifedipine on AP duration of hESC-derived cardiomyocytes (patch clamp); settings: myocytes from Noggin+RA-treated cultures; FIG. 4B right
Method: […] to 90 day-old differentiated cultures were washed in a low Ca^2+ solution, and then incubated in an enzyme solution for 20 min at 37° C. The dissociation was completed in KB solution by gently shaking for 40 min at room temperature. The isolated cells were resuspended in DMEM plus 10% FBS, and transferred on 0.1% gelatin-coated glass coverslips, and then kept in an incubator at 37° C., 5% CO2. The composition of the low Ca^2+ solution was (in mM):120 NaCl, 5.4 KCl, 5 MgSO4, 5 Na pyruvate, 20 glucose, 20 taurine, 10 HEPES. The pH was adjusted to 7.3 with NaOH. KB solution contained (in mM): 85 KCl, 30 K2HPO4, 5 MgSO4, 1 EGTA, 2 Na2ATP, 5 Na pyruvate, 20 glucose, 20 taurine, 5 creatine, adjusted to pH 7.3 with KOH.
Action potentials of cardiomyocytes were recorded in a whole-cell patch clamp configuration, using an Axon 200B amplifier (Axon Instruments) at room temperature. Data were digitized at 20 kHz and filtered at 2 kHz, and were analyzed by PClamp 9.0. Patch pipettes (2-4MΩ resistance) were filled with an intracellular solution containing (in mM) 50 KCl, 60 K-Aspartate, 1 MgCl2, 3 Na2ATP, 10 EGTA, 10 mM HEPES, adjusted to pH 7.3 with KOH. Normal Tyrode's solution was used as an extracellular solution and contained (in mM) 140 NaCl, 5 KCl, 1 CaCl2, 1 MgCl2, 10 glucose, 10 HEPES, adjusted to pH 7.4 with NaOH.

[2] = tested on: hESC line H7; assay: Cardiac differentiation efficiency of hESCs, CTNT antibody staining and flow cytometry on day 14
Method: (§1) Undifferentiated hESC line H7 from the WiCell Research Institute was maintained on matrigel-coated plates, as previously described^37. In the basic cardiac induction protocol (BP), undifferentiated hESCs were seeded on gelatin-coated plates at a density of 1-5×10^5 cells/cm^2 and cultured with mouse embryonic fibroblast conditioned medium for 3 days until fully confluent. To initiate cell differentiation, the medium was changed to RPMI1640, supplemented with B27 (Invitrogen). Cells were treated with 25 ng/ml BMP4 and 6 ng/ml bFGF at day 1, 100 ng/ml activin A at day 2, and 200 ng/ml DKK1 (R&D Systems) from day 6 to day 11. The medium was changed every 3 days after day 11 (FIG. 1). 250 ng/ml Noggin, 1 μM RA (Sigma) or 1 μM RAi were added to the cell culture at the times specified in FIGS. 1A-C. Spontaneous beating clusters were typically observed at days 10 to 11. Cardiac differentiation efficiency was analyzed on day 14 with CTNT antibody staining and flow cytometry.
Differentiated cell clusters were dissociated into single cells with 0.25% trypsin-EDTA, which were then fixed and stained with anti-human CTNT antibody (R&D Systems) and goat anti-mouse FITC-conjugated secondary antibody (Santa Cruz) in PBS plus 0.5% BSA and 0.1% saponin (Sigma) at 4° C. Stained cells were kept in 4% paraformaldehyde for subsequent quantitative analysis. Data were collected using FACScalibur (Becton Dickinson) and analyzed with FlowJo software (Treestar).

[3] = tested on: hESC line H7; assay: Immunostaining and Western blotting of cardiac markers in 60 day-old differentiated cultures
Method: as §1
Sixty (60) day-old differentiated cultures were digested with 0.25% trypsin-EDTA, and the cells were plated on gelatin-coated coverslips for 5 days, allowing full attachment to occur. Cells were then fixed in 4% paraformaldehyde, and incubated with primary antibodies of mouse anti-human CTNT (R&D systems), mouse anti-human α-Actinin (Sigma), mouse anti-human β-MHC (ATCC), mouse anti-human MLC-2a (Synaptic Systems), or rabbit anti-human MLC-2v (ProteinTech Group). Goat anti-mouse secondary antibody conjugated with DyLight 488 (Santa Cruz Biotechnology) and goat anti-rabbit secondary antibody conjugated with Tritc (Santa Cruz Biotechnology) were used as needed. After the nuclei were counterstained with 4′,6-diamidino-2-phenylindole (DAPI, Sigma), immunofluorescence images were visualized and recorded using an Olympus microscope system X51 or Olympus LSCM FV1000.
One well of a 24-well plate of 60 day-old differentiated cells was lysed with RIPA lysis buffer (Biomiga) for Western blotting. […]

[4] = tested on: BMP signaling; assay: Western blot for phosphorylated Smad1,5,8; settings: data not shown
Method: One well of a 24-well plate of 60 day-old differentiated cells was lysed with RIPA lysis buffer (Biomiga) for Western blotting. Blots were incubated with mouse anti-human CTNT, mouse anti-human β-MHC, rabbit anti-human MLC-2v, goat anti-ANF, mouse anti-human MLC-2a, mouse anti-human β-actin, rabbit anti-phospho smad1/5/8 and rabbit anti-smad1/5/8 separately, and then with HRP-conjugated goat anti-mouse or anti-rabbit antibody.

| Molecule | effect on duration of atrial-like APs [1] | effect on cardiac differentiation efficiency / cardiogenesis of hESCs (summary statement) [2] | effect on cardiac differentiation ([2]; RAi added between days 6 to 9, FIG. 1C) | effect on cardiac differentiation efficiency / cardiogenesis of hESCs (summary statement) ([2]; listed as BMS-189453) | β-MHC expression (western blots) ([3]; 60 day old RA and RAi treated cultures (with Noggin), FIG. 6) | effect on cardiac differentiation ([2]; Noggin present between days 2 and 3, FIG. 1B) | effect on cardiac differentiation ([2]; Noggin present between days 2.5 and 4.5, FIG. 1B) | effect on cardiac differentiation ([2]; Noggin present between days 4 and 5, FIG. 1B) | differentiation efficiency (CTNT+ cells, flow cytometry) ([2]; day 14 cultures, Noggin on days 4 and 5, RAi from days 6 to 8, mean±s.e.m, FIG. 1D) | cTNT positive cells that are also MLC-2v positive ([3]; 60 day old cultures, immunostaining, FIG. 5) | MLC-2v expression (Western blotting) ([3]; 60 day-old cultures, FIG. 3C, FIG. 5) | activities of BMP signaling (phosphorylated Smad1,5,8) [4] |
| --- | --- | --- | --- | --- | --- | --- | --- | --- | --- | --- | --- | --- |
| COC(=O)C1=C(C)NC(C)=C(C(=O)OC)C1c1ccccc1[N+](=O)[O-] [nifedipine] | No significant effect | – | – | – | – | – | – | – | – | – | – | – |
| CC1(C)CC=C(c2ccccc2)c2cc(/C=C/c3ccc(C(=O)O)cc3)ccc21 [RAi, BMS-189453, reference compound] | – | significantly promote cardiogenesis | markedly increased | significantly increase | evenly expressed | – | – | – | – | – | – | – |
| Noggin: BMP antagonist protein, added at 250 ng/ml (protein, UniProt Q13253 28-232, looked up) Noggin: QHYLHIRPAPSDNLPLVDLIEHPDPIFDPKEKDLNETLLRSLLGGHYDPGFMATSPPEDRPGGGGGAAGGAEDLAELDQLLRQRPSGAMPSEIKGLEFSEGLAQGKKQRLSKKLRRKLQMWLWSQTFCPVLYAWNDLGSRFWPRYVKVGSCFSKRSCSVPEGMVCKPSKSVHLTVLRWRCQRRGGQRCGWIPIQYPIISECKCSC | – | significantly increase; also recorded: significantly promote cardiogenesis | – | – | – | slightly repressed | significantly promoted | Highest cardiac differentiation efficiencies | 50%±3.06% | about 35% | weak MLC-2v expression | reduced the activities of BMP signaling |
